This is an account of results in patent US20260070983A1.

One assay concerns the target human PD-1 ECD (human). Description: SPR, 37 °C.
The target in the next assay is human PD-1 (human) (UniProt Q15116). Description: cell-based or functional assay.

One may read the Kd as the constant that tells how readily two partners part at equilibrium. Read a high Kd as lower affinity.

Chain of human PD-1 (human) (Q15116 25-288): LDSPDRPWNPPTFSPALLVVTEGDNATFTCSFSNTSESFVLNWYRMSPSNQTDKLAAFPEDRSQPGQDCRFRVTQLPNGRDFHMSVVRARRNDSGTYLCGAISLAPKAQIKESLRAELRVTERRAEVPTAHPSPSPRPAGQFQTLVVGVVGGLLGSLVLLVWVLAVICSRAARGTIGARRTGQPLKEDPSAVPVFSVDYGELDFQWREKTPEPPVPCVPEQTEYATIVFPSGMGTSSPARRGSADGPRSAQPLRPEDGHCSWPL
Chain of human PD-1 ECD (human) (Q15116 25-170): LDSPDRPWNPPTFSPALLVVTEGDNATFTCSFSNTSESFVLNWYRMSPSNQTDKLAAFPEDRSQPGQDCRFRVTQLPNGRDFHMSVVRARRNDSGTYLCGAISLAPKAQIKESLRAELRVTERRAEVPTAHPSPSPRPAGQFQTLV

B1: G2 IgG1 mAb (antibody, INN chains, looked up, V domains shown)
VH: QVQLVQSGAEVKKPGASVKVSCKVSGYSLSKYDMSWVRQAPGKGLEWMGIIYTSGYTDYAQKFQGRVTMTEDTSTDTAYMELSSLRSEDTAVYYCATGNPYYTNGFNSWGQGTLVTVSS
VL: DIQMTQSPSSLSASVGDRVTITCQASQSPNNLLAWYQQKPGKAPKLLIYGASDLPSGVPSRFSGSGSGTDFTLTISSLQPEDFATYYCQNNYYVGPVSYAFGGGTKVEIK
modifications: IgG1
As for B1, the dissociation constant Kd with human PD-1 ECD (human) is 2.3 nM. In the assay with human PD-1 (human), this molecule displayed a % ADCC Activated T cells, mean of 3.3%; a % ADCC PBMC, mean of 0.2%; a % Inhibition Proliferation, mean (SEB assay) of 36.9%; a % PD-1 Expression Inhibition, mean (SEB assay) of 50.8%. The molecule further returned a % T cell Proliferation Inhibition, mean (SEB assay) with human PD-1 (human) of 56.5%.
